This is an account of results in paper PMC5566574 (Frontiers in Immunology, 2017).

One experiment addresses T1, IL12Rβ-Fc chimera (human, UniProt P42701 24-545).
T1 construct: interleukin 12 receptor subunit beta 1, human; The materials name it 'IL12Rβ-Fc chimera'; the assay and results name IL12Rβ1 / hIL12Rβ1; also called IL12Rβ1; hIL12Rβ1; source: bought: R&D Systems Inc
Put plainly: AlphaScreen or HTRF; serial dilutions of purified nanobody (250 nM to 1 pM) preincubated with 500 pM biotinylated hIL23 or 3 nM biotinylated hIL12; IL23R or IL12Rβ1 on acceptor beads via an antihuman Fc monoclonal antibody; streptavidin donor beads; 1 h at room temperature. The settings on record: both partners purified. (In general: Bead proximity is the source of the signal in Alpha formats.)

In experiment [1] the target is T2, cynomolgus monkey (cyno) IL23 (Macaca fascicularis (cynomolgus monkey), UniProt H6WS56;H6WS55).
T2 construct: interleukin 23 subunit p19, cynomolgus monkey; construct not described; p40 subunit, cynomolgus monkey; source: produced at Ablynx, Ghent/Zwijnaarde, Belgium
The experiment is described as follows: SPR; species cross-reactivity of the monovalent nanobodies on cyno IL23 and mouse IL23; off-rates compared; set-up not described. A general note: Surface plasmon resonance follows binding to a sensor surface in real time, without labels.

The next experiment has as its target T3, mouse (m) IL23 (Mus musculus (Mouse)., UniProt Q9EQ14;P43432).
T3 construct: interleukin 23 subunit p19, mouse; p40 subunit, mouse; source: bought: R&D Systems Inc
The experiment is described as above.

In experiment [2] the target is T4, biotinylated human interleukin 12 (human, UniProt P29459;P29460, biotin (Sulfo-NHS-LC-Biotin; sites not stated) | biotin (Sulfo-NHS-LC-Biotin; sites not stated)).
T4 construct: p35 subunit of IL12, human; p40 subunit shared by IL12 and IL23, human; also called biotinylated hIL12; source: bought: R&D Systems Inc; biotinylated using Sulfo-NHS-LC-Biotin (Pierce)
The experiment is described as follows: AlphaScreen or HTRF; serial dilutions of purified nanobody (250 nM to 1 pM) preincubated with 500 pM biotinylated hIL23 or 3 nM biotinylated hIL12; IL23R or IL12Rβ1 on acceptor beads via an antihuman Fc monoclonal antibody; streptavidin donor beads; 1 h at room temperature. Conditions: both partners purified.

In a further experiment the target is human interleukin 12 (human, UniProt P29459;P29460). Put plainly: cell-based or functional assay.
The target in experiment [3] is T5, p40 subunit of human interleukin 23 (human, UniProt P29460, saccharidic chain of the complex type at Asn 200 (GlcNAc2-Man3 core seen in the crystal)).
T5 construct: p40 subunit shared by IL12 and IL23, human; never handled apart from p19; also called IL12-shared p40 subunit; source: bought as part of hIL23 (R&D Systems Inc. or eBioscience)
Put plainly: crystal structure; hIL23 with nanobodies 37D5, 124C4 and 22E11; sitting drop, 277 K, 16.5% PEG 20 K, 0.1 M MES pH 5.9; two complexes per asymmetric unit; PDB 4GRW. The settings on record: both partners purified.

Experiment [4] deals with T6, human interleukin 23 (Homo sapiens, UniProt Q9NPF7;P29460, saccharidic chain of the complex type at Asn 200 (GlcNAc2-Man3 core seen in the crystal)).
T6 construct: interleukin 23 subunit p19, human; p40 subunit shared by IL12 and IL23, human; Heterodimer with a disulfide bridge between Cys 54 (p19) and Cys177 (p40); the splenocyte assay used eBioscience hIL23; also called hIL23; IL23; source: bought: R&D Systems Inc. and eBioscience
The experiment is described as follows: SPR; Biacore T100; hIL23 covalently bound to a CM5 chip via amine coupling; purified nanobodies 1 to 300 nM injected for 4 min at 45 µl/min. Conditions: both partners purified.

In experiment [5] the target is T6, human interleukin 23. The experiment is described as follows: cell-based or functional assay.
In experiment [6] the target is T7, biotinylated human interleukin 23 (human, UniProt Q9NPF7 20-189; P29460 23-328, biotin (Sulfo-NHS-LC-Biotin; sites not stated) | biotin (Sulfo-NHS-LC-Biotin; sites not stated)).
T7 construct: interleukin 23 subunit p19, human; p40 subunit shared by IL12 and IL23, human; also called biotinylated hIL23; source: bought: eBioscience; biotinylated using Sulfo-NHS-LC-Biotin (Pierce)
T7 sequence (looked up) 1: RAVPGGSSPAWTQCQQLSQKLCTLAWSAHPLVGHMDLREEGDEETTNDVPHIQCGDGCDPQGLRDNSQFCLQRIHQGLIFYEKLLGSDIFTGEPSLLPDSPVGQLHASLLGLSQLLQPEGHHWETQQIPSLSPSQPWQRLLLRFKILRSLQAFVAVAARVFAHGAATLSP
T7 sequence (looked up) 2: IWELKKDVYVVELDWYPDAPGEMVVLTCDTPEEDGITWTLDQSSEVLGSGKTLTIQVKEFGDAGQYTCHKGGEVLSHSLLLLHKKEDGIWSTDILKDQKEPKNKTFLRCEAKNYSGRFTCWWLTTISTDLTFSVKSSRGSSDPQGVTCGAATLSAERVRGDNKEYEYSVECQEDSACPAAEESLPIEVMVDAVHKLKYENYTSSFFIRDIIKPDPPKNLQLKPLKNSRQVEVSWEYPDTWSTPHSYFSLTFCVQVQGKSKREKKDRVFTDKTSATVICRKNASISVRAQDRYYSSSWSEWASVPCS
The experiment is described as follows: AlphaScreen or HTRF; serial dilutions of purified nanobody (250 nM to 1 pM) preincubated with 500 pM biotinylated hIL23 or 3 nM biotinylated hIL12; IL23R or IL12Rβ1 on acceptor beads via an antihuman Fc monoclonal antibody; streptavidin donor beads; 1 h at room temperature. The settings on record: both partners purified.

For experiment [7], the target named is T8, p40 subunit of human interleukin 23 (human, UniProt P29460 23-328, saccharidic chain of the complex type at Asn 200 (GlcNAc2-Man3 core seen in the crystal)).
T8 construct: p40 subunit shared by IL12 and IL23, human; never handled apart from p19; also called IL12-shared p40 subunit; source: bought as part of hIL23 (R&D Systems Inc. or eBioscience)
T8 sequence (looked up): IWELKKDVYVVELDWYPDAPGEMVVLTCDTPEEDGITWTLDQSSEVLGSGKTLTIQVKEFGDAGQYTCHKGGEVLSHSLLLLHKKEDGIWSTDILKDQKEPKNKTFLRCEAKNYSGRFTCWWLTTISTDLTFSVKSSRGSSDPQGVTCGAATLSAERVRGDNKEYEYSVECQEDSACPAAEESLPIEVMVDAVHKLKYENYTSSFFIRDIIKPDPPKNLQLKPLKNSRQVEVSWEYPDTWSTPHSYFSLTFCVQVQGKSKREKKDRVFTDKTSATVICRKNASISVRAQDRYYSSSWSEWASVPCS
Put plainly: crystal structure; hIL23 with nanobodies 37D5, 124C4 and 22E11; sitting drop, 277 K, 16.5% PEG 20 K, 0.1 M MES pH 5.9; two complexes per asymmetric unit; PDB 4GRW. The settings on record: both partners purified.

Experiment [8] deals with T9, biotinylated human interleukin 23 (human, UniProt Q9NPF7;P29460, biotin (Sulfo-NHS-LC-Biotin; sites not stated) | biotin (Sulfo-NHS-LC-Biotin; sites not stated)).
T9 construct: interleukin 23 subunit p19, human; p40 subunit shared by IL12 and IL23, human; also called biotinylated hIL23; source: bought: eBioscience; biotinylated using Sulfo-NHS-LC-Biotin (Pierce)
Put plainly: AlphaScreen or HTRF; serial dilutions of purified nanobody (250 nM to 1 pM) preincubated with 500 pM biotinylated hIL23 or 3 nM biotinylated hIL12; IL23R or IL12Rβ1 on acceptor beads via an antihuman Fc monoclonal antibody; streptavidin donor beads; 1 h at room temperature. The settings on record: both partners purified.

T3 sequence (Q9EQ14 22-196, chain 1 of 2): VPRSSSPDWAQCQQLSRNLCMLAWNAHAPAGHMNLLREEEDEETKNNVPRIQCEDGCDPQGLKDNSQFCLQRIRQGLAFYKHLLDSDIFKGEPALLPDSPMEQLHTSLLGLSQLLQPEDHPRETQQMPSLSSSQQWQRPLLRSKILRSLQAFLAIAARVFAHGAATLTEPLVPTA
T3 sequence (P43432 23-335, chain 2 of 2): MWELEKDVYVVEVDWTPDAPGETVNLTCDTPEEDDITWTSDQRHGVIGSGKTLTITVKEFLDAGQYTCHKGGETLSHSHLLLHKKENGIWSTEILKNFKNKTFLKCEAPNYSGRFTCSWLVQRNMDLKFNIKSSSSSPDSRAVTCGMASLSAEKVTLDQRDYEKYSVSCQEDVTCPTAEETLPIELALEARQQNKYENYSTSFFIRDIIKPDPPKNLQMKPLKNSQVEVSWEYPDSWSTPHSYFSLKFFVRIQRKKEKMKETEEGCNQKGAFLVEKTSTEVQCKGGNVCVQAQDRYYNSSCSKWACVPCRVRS

B1: biotinylated human interleukin 12 (complex)
chain 1: RNLPVATPDPGMFPCLHHSQNLLRAVSNMLQKARQTLEFYPCTSEEIDHEDITKDKTSTVEACLPLELTKNESCLNSRETSFITNGSCLASRKTSFMMALCLSSIYEDLKMYQVEFKTMNAKLLMDPKRQIFLDQNMLAVIDELMQALNFNSETVPQKSSLEEPDFYKTKIKLCILLHAFRIRAVTIDRVMSYLNAS
chain 2: IWELKKDVYVVELDWYPDAPGEMVVLTCDTPEEDGITWTLDQSSEVLGSGKTLTIQVKEFGDAGQYTCHKGGEVLSHSLLLLHKKEDGIWSTDILKDQKEPKNKTFLRCEAKNYSGRFTCWWLTTISTDLTFSVKSSRGSSDPQGVTCGAATLSAERVRGDNKEYEYSVECQEDSACPAAEESLPIEVMVDAVHKLKYENYTSSFFIRDIIKPDPPKNLQLKPLKNSRQVEVSWEYPDTWSTPHSYFSLTFCVQVQGKSKREKKDRVFTDKTSATVICRKNASISVRAQDRYYSSSWSEWASVPCS
modifications: biotin (Sulfo-NHS-LC-Biotin; sites not stated) | biotin (Sulfo-NHS-LC-Biotin; sites not stated)
notes: p35 subunit of IL12, human; p40 subunit shared by IL12 and IL23, human; also called biotinylated hIL12; source: bought: R&D Systems Inc; biotinylated using Sulfo-NHS-LC-Biotin (Pierce)
For the molecule B1, in the experiment with IL12Rβ-Fc chimera, the binding result is listed as “binds”.

B2: nanobody 22E11 (VHH)
VHH: EVQLVESGGGLVQAGGSLRLSCAASGRTFSWSAVGWFRQAPGKEREFVAAIRWSGGSPYYADSVKDRFTISRDNAKNTVYLQMNSLRPEDTAVYLCGETSLFPTSRGSHYDTWGQGTQVTVSS
notes: nanobody 22E11 (llama VHH); both add C-terminal c-myc and hexa-histidine tags; also called p40+ nanobody 22E11; source: E. coli TG1, periplasmic extract (screening); purified (Ni-NTA; Superdex75 for crystallization); not shown: c-myc, C-terminal, kept
As for B2, the binding result in experiment [1] is on record as “binds”; with mouse (m) IL23, “no binding”; in experiment [3] it was “binds”. Further, the IC50 (commonly the midpoint of a concentration-inhibition curve) in experiment [2] was found to be 1.3 nM. For the same molecule, in the experiment with human interleukin 12, the “IC50 of block of hIL12-dependent proliferation of PHA blasts (4 pM hIL12 for stimulation; data not shown)” value is 95 pM. Moreover, the koff (commonly a measure of how fast the partners let go of each other) in the experiment with human interleukin 23 [4] amounted to 0.00023 s⁻¹. Further, the “IC50 of inhibition of mIL22 secretion by mouse splenocytes stimulated with 19 pM hIL23” value in the experiment with human interleukin 23 [5] amounted to 186 pM.

B3: hIL23 receptor (R)-fragment crystallizable region (Fc) (Fc fusion, human, UniProt Q5VWK5 24-355, looked up)
chain: GITNINCSGHIWVEPATIFKMGMNISIYCQAAIKNCQPRKLHFYKNGIKERFQITRINKTTARLWYKNFLEPHASMYCTAECPKHFQETLICGKDISSGYPPDIPDEVTCVIYEYSGNMTCTWNAGKLTYIDTKYVVHVKSLETEEEQQYLTSSYINISTDSLQGGKKYLVWVQAANALGMEESKQLQIHLDDIVIPSAAVISRAETINATVPKTIIYWDSQTTIEKVSCEMRYKATTNQTWNVKEFDTNFTYVQQSEFYLEPNIKYVFQVRCQETGKRYWQPWSSLFFHKTPETVPQVTSKAFQHDTWNSGLTVASISTGHLTSDNRGDIG
notes: interleukin 23 receptor, human; also called hIL23R-Fc; source: bought: R&D Systems Inc
In the case of B3, in experiment [6], the binding result is “binds”.

B4: p19 subunit of human interleukin 23 (natural protein, UniProt Q9NPF7 20-189, looked up)
chain: RAVPGGSSPAWTQCQQLSQKLCTLAWSAHPLVGHMDLREEGDEETTNDVPHIQCGDGCDPQGLRDNSQFCLQRIHQGLIFYEKLLGSDIFTGEPSLLPDSPVGQLHASLLGLSQLLQPEGHHWETQQIPSLSPSQPWQRLLLRFKILRSLQAFVAVAARVFAHGAATLSP
notes: interleukin 23 subunit p19, human; never handled apart from p40; also called IL23p19; hIL23 p19 subunit; source: bought as part of hIL23 (R&D Systems Inc. or eBioscience)
Take B4: the binding result in experiment [7] is given as “binds”.

B5: nanobody 37D5 (VHH)
VHH: EVQLVESGGGLVQPGGSLRLSCAASGFTLDYLAIGWFRQAPGKEREGVSCVSSSGQYTYYADSVKGRFTISRDNAESTVYLQMNSLKPEDTAVYYCATDPECYRVRGYYNGEYDYWGQGTQVTVSS
notes: nanobody 37D5 (llama VHH); both add C-terminal c-myc and hexa-histidine tags; also called p19+ nanobody 37D5; source: E. coli TG1, periplasmic extract (screening); purified (Ni-NTA; Superdex75 for crystallization); not shown: c-myc, C-terminal, kept
Regarding B5, the binding result in experiment [1] is on record as “binds”. Further, the binding result with mouse (m) IL23 is “no binding”. This molecule gave an IC50 in experiment [8] of 0.11 nM. Also, in experiment [3], the binding result was “binds”. Further, in the experiment with human interleukin 23 [4], the Kd (in general, the concentration at which binding is half-saturated) came out at 0.6 nM; the koff is 0.00018 s⁻¹; the kon (commonly the second-order rate constant of association) came out at 320000 M⁻¹ s⁻¹. Further, the “IC50 of inhibition of mIL22 secretion by mouse splenocytes stimulated with 19 pM hIL23; blocks IL23/IL23R” value in the experiment with human interleukin 23 [5] was 19 pM.

B6: nanobody 124C4 (VHH)
VHH: EVQLVESGGGLVQPGGSLRLSCAASGFTLDDYAIAWFRQAPGKEREGVSGIDSGDGSAYYADSVKGRFTISSDNAKNTVYLQMNSLRPEDTAVYYCARVRTGWGLNAPDYAMDYWGKGTLVTVSS
notes: nanobody 124C4 (llama VHH); both add C-terminal c-myc and hexa-histidine tags; also called p19− nanobody 124C4; source: E. coli TG1, periplasmic extract (screening); purified (Ni-NTA; Superdex75 for crystallization); not shown: c-myc, C-terminal, kept
For B6, the binding result (in [1]; with mouse (m) IL23; in [3]) was “binds” each time. This molecule showed a Kd with human interleukin 23 [4] of 3.3 nM. The molecule also yielded an off-rate (koff) with human interleukin 23 [4] of 0.00033 s⁻¹. For the same molecule, the kon with human interleukin 23 [4] came to 100000 M⁻¹ s⁻¹.
